In the test the target is TSLP, Q969D9. The test can be described thus: Kd (SPR).

Numbering of substitutions follows the chain as printed.

B1: unnamed (protein)
chain 1: QMQLVESGGGVVQPGRSLRLSCAASGFTFSTFAMHWVRQAPGKGLEWVAVIWYDGSNKHYADSVKGRFTITRDNSKNTLNLQMNSLRAEDTAVYYCARAPRYDERYEAFDVWGQGTMVTVSS
chain 2: SYVLTQPPSVSVAPGQTARITCGGNNLGSKSVHWYQQKPGQAPVLVVYDDSDRPSWIPERFSGSNSGNTATLTISRGEAGDEADYYCQVWDSSSDHVVFGGGTKLTVL
One may read the Kd as the constant that tells how readily two partners part at equilibrium. A high value points to lower affinity. The molecule B1 showed a Kd of 366 nM.

B2: unnamed (protein)
chain 1: B1 chain 1 with D103Y, E104W, R105Y
chain 2: B1 chain 2
The molecule B2 registered a Kd of 96.6 nM. Compared with the last molecule, the Kd is about 3.8-fold lower.

B3: unnamed (protein)
chain 1: B1 chain 1 with R105H
chain 2: B1 chain 2
Molecule B3 displayed a dissociation constant (Kd) of 777 nM.

B4: unnamed (protein)
chain 1: B1 chain 1 with A99S, D103Y, E104D, R105Y
chain 2: B1 chain 2
B4 yielded a Kd of 41.8 nM.

B5: unnamed (protein)
chain 1: B1 chain 1 with D103Y, E104D, R105Y, Y106L
chain 2: B1 chain 2
Molecule B5 registered a Kd of 62.6 nM. The Kd values of the last two molecules are within 1.5-fold of each other.

B6: unnamed (protein)
chain 1: B1 chain 1 with R105D, Y106W
chain 2: B1 chain 2
The molecule B6 yielded a Kd of 894 nM.

B7: unnamed (protein)
chain 1: B1 chain 1 with F32Y
chain 2: B1 chain 2
As to B7, the dissociation constant (Kd) amounted to 686 nM.

B8: unnamed (protein)
chain 1: B1 chain 1 with F32Y, D103Y, E104W, R105Y
chain 2: B1 chain 2
With B8, the Kd stood at 87.1 nM.

B9: unnamed (protein)
chain 1: B1 chain 1 with E104D, R105L
chain 2: B1 chain 2
In turn, B9 displayed an equilibrium dissociation constant (Kd) of 188 nM.

B10: unnamed (protein)
chain 1: B1 chain 1 with R105Y, Y106W
chain 2: B1 chain 2
The molecule B10 gave a Kd of 764 nM.

B11: unnamed (protein)
chain 1: B1 chain 1 with F32Y, E104W, R105Y, Y106W
chain 2: B1 chain 2
Take B11: the Kd came to 759 nM.

B12: unnamed (protein)
chain 1: B1 chain 1 with E104D, R105Y
chain 2: B1 chain 2
Molecule B12 yielded a dissociation constant Kd of 92.5 nM. This Kd is about 8.2-fold lower than that of the molecule before.

B13: unnamed (protein)
chain 1: B1 chain 1 with A99S, D103Y, R105Y
chain 2: B1 chain 2
For B13, the Kd turned out to be 44.5 nM.

B14: unnamed (protein)
chain 1: B1 chain 1 with F32Y, A99S, D103Y, R105Y
chain 2: B1 chain 2
B14 came in with a Kd of 57 nM.

B15: unnamed (protein)
chain 1: B1 chain 1 with E104D, R105D
chain 2: B1 chain 2
In turn, B15 showed a Kd of 112 nM.

B16: unnamed (protein)
chain 1: B1 chain 1 with F32Y, A99S, R105Y, Y106W
chain 2: B1 chain 2
B16 displayed a Kd of 836 nM. Against the preceding molecule, the Kd is about 7.5-fold higher.

B17: unnamed (protein)
chain 1: B1 chain 1 with D103Y, E104D, R105Y
chain 2: B1 chain 2
Turning to B17, the Kd worked out at 56.8 nM.

B18: unnamed (protein)
chain 1: B1 chain 1 with D103Y, R105Y
chain 2: B1 chain 2
With B18, the Kd amounted to 106 nM. This Kd is about 1.9-fold higher than that of the molecule before.

B19: unnamed (protein)
chain 1: B1 chain 1 with A99S, E104D, R105Y, Y106L
chain 2: B1 chain 2
With B19, the Kd was determined as 80.5 nM.

The values are drawn from the FLAb antibody collection (doi:10.1101/2023.12.08.570889).
